Data as given in PMC10570038, “Cell-type specific regulator RBPMS switches alternative splicing via higher-order oligomerization and heterotypic interactions with other splicing regulators” (Nucleic Acids Research, 2023).

Assays:
[1] = target: the molecule itself; assay: SEC; size exclusion chromatography of purified untagged recombinant protein; compared with size markers (443 kDa marker, void volume)
[2] = target: the molecule itself; assay: AUC; sedimentation velocity, 40 000 rpm, 20°C, 20 mM HEPES, 1 mM TCEP, pH 7.9, 500 mM KCl; FL and ΔC20 at equal molar concentration (0.46 and 0.57 mg/ml); continuous c(s) model

B1: recombinant untagged full-length rat RBPMS-A (natural protein)
chain: not shown
notes: RBPMS isoform A (RBPMS-A), rat, cDNA NCBI XM_006253240.2; Exists as a mixture of dimers and higher-order oligomers; From pET15b-TEV-RBPMS-A; also called FL RBPMS; RBPMS-A FL; source: E. coli BL21(DE3), purified (HisTrap, TEV cleavage, Mono Q, Superdex 200); not shown: His6, N-terminal, cleaved
stoichiometry N [1]: 2
stoichiometry N [2]: ~21
